Sequences and labels used below:
B1: Probe3 (dsDNA)
DNA 1: GTCTTATTTTTCTCTGTTTTCTTTTTTGGTATT
DNA 2: AATACCAAAAAAGAAAACAGAGAAAAATAAGAC
B2: Probe4 (dsDNA)
DNA 1: ATGACCCCCTTTTGCTCTGCTCTGTCTTTCTAGT
DNA 2: ACTAGAAAGACAGAGCAGAGCAAAAGGGGGTCAT
B3: Probe1 (dsDNA)
DNA 1: CTCTCTCTCTCTCTCTCTCTGTTTGCGCCAAAACA
DNA 2: TGTTTTGGCGCAAACAGAGAGAGAGAGAGAGAGAG
B4: Probe2 (dsDNA)
DNA 1: TTTCTCATGAACCCTCTGCTTTCTCATCTTGGGT
DNA 2: ACCCAAGATGAGAAAGCAGAGGGTTCATGAGAAA
B5: Probe5 (dsDNA)
DNA 1: TAATTAGGTATCTCTGCTCGAGTTCTTTTG
DNA 2: CAAAAGAACTCGAGCAGAGATACCTAATTA

Sequence of RrJMJ12-C (A0A2P6P5A5 entry or part of it): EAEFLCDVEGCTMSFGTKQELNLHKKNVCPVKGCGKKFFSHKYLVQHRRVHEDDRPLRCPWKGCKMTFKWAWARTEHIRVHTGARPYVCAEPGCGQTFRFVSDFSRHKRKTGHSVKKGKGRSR

This data set concerns the target RrJMJ12-C (Rosa rugosa, UniProt A0A2P6P5A5 1371-1493). Nature of the data set: EMSA; unlabeled cold probe control; EMSA/Gel-Shift Kit (Beyotime) binding buffer, 30 min at 24 C; salt and pH not stated. Particulars: protein: recombinant; tags: GST (pGEX4T-1); label: biotin; blunt. Background: A gel shift assay detects complexes by their altered migration in electrophoresis.
Take B1: the binding result is given as “binds”.

Turning to B2, the binding result is “binds”. Take B3: the binding result is “binds”. Consider B4, for which the binding result is “binds”.

Regarding B5, the binding result was “binds”.

Values taken from PMC12946505, “RrMYB2 Regulates Drought Stress via RrJMJ12‐Dependent Epigenetic Modification in Rosa rugosa”.
